The results in this text go back to a protein production outcome set (Wang et al. 2014).

The nature of the data set: label from the status in PepcDB records.
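Further: failed if final PepcDB status was selected cloned or expressed and not failed if soluble or beyond.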

As for “MRQYMRTFLLVAVIFVFGFSIRMLNAGYDDPLYTDDDGLQYFQESDSYYNYRLTENLAIRGIPGDAVIGGKIWDLHSYYPPGVPLDYPAGILLLAVILHAITGVIAPVSLRAVCLIMPPLLAPLAGVICFFTVKRFQGDIPAFIAGLLLVSAPFYLVKTVYGLYDTDMLILTLSMAVLFLFIEADAREVNRVPLSAIGGFILFLFSITWSGWQVMFYVTLVTFIILILTSGSRKPLRNILGNIPTGLHGSVYPFNLFNHLELIKLIMTPLHIHDLVDKSIWYPWPDSYTTVAELQPAYMDKVLGHISPALTVLGAAGIPAYYMLYRRKGSVGLPVIFISVWIATGALMLLEGIRFVMILIAPLSVSAGIFTGILLDCSRKFRFRWIKGVLFILIIFTVSAQLAISGNMVADLKPGYNDYFEESAHWIAENTPSDAVIITEWSYGHFYASEADRPVVYDGRLAYIETLPARGVWYGSSMDPEIPTTARDYWINLSLSSENRTLSLNILRMLANSGDDAYILLKNQTGSEVQAYRIMNEILGLNRESAMDVLMHRYGFSESEALRILNMTHPMTSRKIVVVVPEKMIGLIASKGDSGDMPAGTYSLIRLKDDVIEEEIINSSGNVTVLETTDGSYRINRKYRKSLLLELIMGVNDENFSLVYRNKQIKVYIINS”, the protein production result is given as “failed”.

For the sequence “MRQYPRWYYDEFKQSGADYADIEEVNTYDLRMQNLRNIENESNRIRELLKLKKSDVVLEIGTGTGELALNISAHCKQVIAIDVSKMMINFARRKAESQNKTNIQFYNAGFLTYENHDELFDVIVTQLALHHLPDYWKMMALRRIYGMLKEEGKFYLHDVVFPSSIQNYDSYFDKIITDLEISAGDKIAEETEIHIKEEFSTLDWVMEGLLTGVGFYIEYIKYDGFMASYICKK”, the protein production result was “failed”.

On to “MRRAAGKPRARRNTACHAAGILKKYPSVSALGCTFHDARQTSRCDENDKTNETMSSALLLVPDFSLILIGWLLVRYTPFDRGFWAGVERLVYFVLFPALLLQSTNSAKFDFSSTSAMLGLALLTMVFGMATGYLVKWVLRPAPADFASGLQTAFRFNSYIGLALAARLGNGEGLALMALVVGVTVPLCNVVAVWALAKHGEARVLRELVRNPLILATATGLVTNLLGLHPPEVVAMTLNRLGSASTALGLMTVGAGLQMSGATGTAGPMAWWSGVKLLAMPCFAWLVGKYLPLTPLQYQIVVVYASLPTASSSYILAVRMGGNGPMVAATISAMTVVAIVTTPVWLSLVS”, for which the protein production result is “failed”.

In the case of “MRRCFSKITDCHLGFKNSNFLLVGSEVGSGSVTRTITTTTSERLFSSSYAAHQVDQIKDNPVSDMLIDKFGRLHTYLRISLTERCNLRCQYCMPSEGVELTPKPQLLSQSEIVRLAGLFVSAGVNKIRLTGGEPTVRKDIEEICLQLSSLKGLKNLAITTNGITLAKKLPRLKECGLDSLNISLDTLVPAKFEFLTRRKGHDRVMKSIDTAIELGYNPVKVNCVIMRGLNDDEICDFVELTRDKPINVRFIEFMPFDGNVWNVKKLVPYAEVMDKVVKRFPSIKRMQDHPTETAKNFTIDGHCGSVSFITSMTEHFCAGCNRLRLLADGNFKVCLFGPSEVSLRDPLRSGADDEALREIIGAAVKRKKAAHAGMLDIAKTANRPMIHIGG”, the protein production entry is “failed”.

Consider “MRRFLAGLWLLGLALGQGLVLPFEGPKGYGLAQAFAQGLKAPPPTLLALLLPDLPWRGSYELAGGLYTKAGARLARAATGADWVLLGREEEGGLRLILAREGGSEERLFKTPELAWLWLQGKGLAPRLSPLPTPGLPEERLRALAQGEAPDPLHRSALDLKEGRGSGLLEGLLPERLLLLWQGKLPRAYEAFRLLAEGKREEALALAEAMEEGDVLERTAAHLLFRALEDERWKASARRLAEAFPELSLAWEEVSFAAFQEGKGEEAKEALLKALALRPDYWLYWTNLGWAYYLTGDLPRAIQASERAVALSPNATAYYNLGLFKAIYGDFLGAKAAYDRALRLDQGEDYPEALKDLEEREEPLALFFRAYLAERTGLEAEPLYRAFLEAYPRHPAAFAARRALATLKAGGLSLEVERLTLVPGGPDARPFRAGEAIFPEVRLEGRPYLRQASLFTALYREGRKVAEEEKPVGFPPLTVALLEVAPPVVPEAPGRYRLEVRYAEARAVLDLEVGAPSLARRLFALGLEVRDLSGRPLLTPKEALGEDGERLLLERAREALMEAAPLATTERLTQPLEKGPVAGRSVQEVLRDPDPEILRAFFQAVLENPERLAETDVVNAFVNWLLEP”, for which the protein production entry was “failed”.

Take “MRRLKRDPLERAFLRGYQNGITGKSRDLCPFTHPTTRQSWLNGWREGRGDNWDGLTGTAGLQRLNQLQHVLEHHHHHH”: the protein production entry was “failed”.

On to “MRRLLFLSLAGLWLFSPAAAAQLPGLISQPLAGGGQSWSLSVQTLVFITSLTFLPAILLMMTSFTRIIIVFGLLRNALGTPSAPPNQVLLGLALFLTFFIMSPVIDKIYVDAYQPFSEQKISMQEALDKGAQPLRAFMLRQTREADLALFARLANSGPLQGPEAVPMRILLPAYVTSELKTAFQIGFTIFIPFLIIDLVIASVLMALGMMMVPPATIALPFKLMLFVLVDGWQLLMGSLAQSFYS”, for which the protein production result is “failed”.

In the case of “MRRNRPGARHCPAFSGYPDPGFPRGSRRSGSSRRGKSRIMDWLKSLPGIGPLIARLMTTHAWRSYERLDRVKWTQLAAAMTFISFVALFPLLTVAAAIGAAALSEEQQKTLQDKLAEQVPGISDQLDIHALVQNAGTVGVIAGAVLLFTGIGWVGAMRDCLRAVWELDDDEENPFLRKLKDGGVLLGLGGAVLVTLATSTVASAMVGWTADRLGIERDGWGSVLLHITAFLVAVLADFLLLLYVLTLLPGVEPTRRRLVVAALIGAVGFELLKLLLSGYIQGVASKSMYGAFGVPVALLLWINFTSKLLLFCAAWTATPSDGPAEEEVSGASDDVPDRAAASGG”, the protein production entry is “failed”.

On to “MRRPVSKWALLALLFTALLAADQWTKYLAVERLTVVFERGGDETLAERVRGFYTYRHLEPLSTEPYYVWRPVWRMNYVENPGAAWGLFRGHSQFFRNAFFTLVSVAAVAFILHYYRKLRQDQRYLQVALGLVLAGAVGNFVDRLARRYVIDFIEWYWWNRPDIRWPTFNVADSLIVVGVAMLVLHPGSRREAARAPARRDAAAERV”, for which the protein production result is given as “failed”.

On to “MRRQELARQCGERSKKDNKKGSAKAKKMEQMRNESRASTPSKDSNTSQSTASSTPTTSAGPGSKSEAGSTGTTTTNSTANSTTSRAHRKSTQSTPSTARPGTPSDKKEDPAAAETTEEEGPVAPKKKRMSEQRPSLTGSDVAEKPLPPTT”, for which the protein production entry was “failed”.

On to “MRRQTMVKAGAVACAVALLGSLSACGGSKKSTTTADGKPIVTVLVKKNANQEKMANMQWAKDLEADCDCKIEWQEVTREAWAQQKNATLASGDIADVNLNGYGAVEAYQYPGMFEDLSKDLDKLPNVKAFFKQKPDAKKMSTDSKGRIYAIADGRGKAYSGTGQHMLINKAWLDKLGLQVPTTWDELENVLKAFKTQDPNGNGQADEIPMNIKKLEGSYFTWYSPMLLLNSTGIVTGFNKGVSEYGFYAKNGVVKSFLTSDEYKEVIKYYHKLISEGLIPAEWATKDDDAYNADQISDGKTAKTGVVFGWSPSDNFGKLKDQYIAMPVPSAPGVSPDQTVWDGSSSELSPAGLSISSHAANKDAALKLANLLYSEKYSVQQFLGSFGKAITKTGEHEYTVDNDKLSQLTGDNQYPGLSELLVGWIPDEATIKGDTHADELIEVNKVYEEQRSHFDPVKDYIPDYVNMDNMDPSDATKLNTNNAEIFNTTMQKTATWMSKGGIDEEWDAYCKQLDSIGLQESTKIWQKWYDTYTK”, for which the protein production result was “not failed”.

Take “MRRRDPSRKMILRMSHVVRRLRPDGIVELRPRDVRVERPEWYLGAYTTFLVSGALFISTAVPAQLVAITFLGCLLGEVCFGLRALVALRRPLAEVEVLAPMRRVR”: the protein production entry was “failed”.

Consider “MRRRWYNNGGFQTLRMLEESSSEVTSSSALGLPPAMVMSPESLASPEYGGLELWGYDDGITYSMAQSLGTCTMEQQQPQPQQQPQQTQPLPSMPLPMPPTTPKSENESMSSGREELSPASSVNGCSTDGEARRQKKGPAPRQQEELCLVCGDRASGYHYNALTCEGCKGFFRRSVTKNAVYICKFGHACEMDMYMRRKCQECRLKKCLAVGMRPECVVPENQCAMKRKEKKAQREKDKLPVSTTTVDDHMPPIMQCDPPPPEAARIHEVVPRFLNEKLMEQNRLKNVPPLTANQKSLIARLVWYQEGYEQPSEEDLKRVTQTWQSDEDDEDSDMPFRQITEMTILTVQLIVEFAKGLPGFAKISQSDQITLLKACSSEVMMLRVARRYDAATDSVLFANNQAYTRDNYRKAGMAYVIEDLLHFCRCMYSMMMDNVHYALLTAIVIFSDRPGLEQPLLVEEIQRYYLNTLRVYILNQNSASPRCAVIFGKILGILTEIRTLGMQNSNMCISLKLKNRKLPPFLEEIWDVADVATTATPVAAEAPAPLAPAPPARPPATV”, for which the protein production entry is listed as “not failed”.
